Test results published in PMC6433865, “The cochaperone CHIP marks Hsp70- and Hsp90-bound substrates for degradation through a very flexible mechanism” (Scientific Reports, 2019).

Legend:
Hsp70 = molecular target: T1, Hsp70 (human (by the printed Entrez Gene code), UniProt P0DMV8 1-641); assay: cryo-EM structure; ternary complexes after GraFix, vitrified; Titan Krios 300 kV (Hsp70:p53-TMGST:CHIP, 15 Å) or Talos Arctica 200 kV (Hsp90:p53-TMGST:CHIP, 13 Å); atomic structures docked; conditions: both partners purified
T1 construct: Hsp70, Entrez Gene code 3303, cloned in pQE-30; Removal of the His tag is told only for CHIP, UbcH5a, Bag1s and p53DBD, not for Hsp70; source: E. coli, expressed at 16 °C overnight, purified (Ni-NTA, Superdex 200)

Hsp90 = molecular target: T2, Hsp90 (human, UniProt P07900 1-732); assay: negative-stain electron microscopy, 3D reconstruction; complexes stabilised and isolated by GraFix (10-30% glycerol gradient, 0.15% glutaraldehyde), stained with 2% uranyl acetate, JEOL JEM1010 at 80 kV; atomic structures docked into 19-26 Å volumes; conditions: both partners purified
T2 construct: Homodimer; also called hHsp90; source: E. coli, induced at 30 °C (4 h), purified (Ni-NTA, Superdex 200)

T1 sequence (P0DMV8 whole entry): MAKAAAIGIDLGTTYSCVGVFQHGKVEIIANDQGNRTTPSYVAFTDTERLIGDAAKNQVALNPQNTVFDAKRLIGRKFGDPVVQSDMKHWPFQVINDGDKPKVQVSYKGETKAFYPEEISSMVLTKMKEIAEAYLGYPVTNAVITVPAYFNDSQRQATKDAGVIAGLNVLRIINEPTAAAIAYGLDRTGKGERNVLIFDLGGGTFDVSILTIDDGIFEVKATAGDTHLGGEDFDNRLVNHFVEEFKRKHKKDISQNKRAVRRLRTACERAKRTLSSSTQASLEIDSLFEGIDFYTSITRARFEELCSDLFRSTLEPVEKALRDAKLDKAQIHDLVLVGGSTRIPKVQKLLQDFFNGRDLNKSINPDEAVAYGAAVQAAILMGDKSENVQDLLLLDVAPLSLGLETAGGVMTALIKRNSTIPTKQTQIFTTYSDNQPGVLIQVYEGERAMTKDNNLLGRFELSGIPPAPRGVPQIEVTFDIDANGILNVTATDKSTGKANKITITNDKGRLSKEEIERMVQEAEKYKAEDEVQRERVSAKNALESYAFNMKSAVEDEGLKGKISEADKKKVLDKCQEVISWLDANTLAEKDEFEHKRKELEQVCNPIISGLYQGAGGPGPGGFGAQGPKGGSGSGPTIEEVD

B1: C terminus of Hsc70-interacting protein (CHIP) (enzyme, human, UniProt Q9UNE7 1-303, looked up)
chain: MKGKEEKEGGARLGAGGGSPEKSPSAQELKEQGNRLFVGRKYPEAAACYGRAITRNPLVAVYYTNRALCYLKMQQHEQALADCRRALELDGQSVKAHFFLGQCQLEMESYDEAIANLQRAYSLAKEQRLNFGDDIPSALRIAKKKRWNSIEERRIHQESELHSYLSRLIAAERERELEECQRNHEGDEDDSHVRAQQACIEAKHDKYMADMDELFSQVDEKRKKRDIPDYLCGKISFELMREPCITPSGITYDRKDIEEHLQRVGHFDPVTRSPLTQEQLIPNLAMKEVIDAFISENGWVEDY
notes: human CHIP (hCHIP), Entrez Gene code 10273, cloned in pPROEX HTa; Homodimer, seen as an asymmetric triangular dimer in all reconstructions; also called hCHIP; source: E. coli, induced at 30 °C (4 h), purified (Ni-NTA, TEV cleavage, second Ni-NTA, Superdex 200)
Does B1 bind (Hsp70)?
Result: binds

Does B1 bind (Hsp90)?
Result: binds
